These results are taken from patent US20230049152A1.

In the test the target is human CCR8 (human) (UniProt P51685). As to the kind of experiment: cell-based or functional assay.

B1: murine anti-human CCR8 mAb 433H (BD Biosciences) (antibody, from another filing, mouse IgG2a, V domains shown)
VH: EVQLVETGGGLVQPKGSLRLSCAASGFPFNTFAMNWVRQAPGKGLEWLARIRSKSNNYATYYADSVKDRFTISRDDSRRMLYLLMNNVKFEDTAIYYCVRGKENNYGYAMDYWGQGTSVTVSS
VL: DIVMTQAAPSVPVTPGESVSISCRSSQSLLHSNGNTYLYWFLQRPGQSPQLLIYRMSNLASGVPDRFSGSGSGTAFTLRISRVEAEDVGVYYCMQHLEYPFTFGIGTKLELKR
Molecule B1 yielded an ADCC reporter EC50, mFcgRIV Jurkat cells with CHO/hCCR8 (FIG. 11D) of 0.26 nM; a CCL1 blocking potency IC50, Ca2+ influx of 17.6 nM; an induction fold at about 1 nM antibody, mFcgRIV Jurkat NFAT-luciferase reporter greater than 12 fold; an induction fold plateau at about 40 nM antibody, mFcgRIV Jurkat NFAT-luciferase reporter of 13 fold.
